These results are taken from paper PMC3480987 (Molecular microbiology, 2012).

Series [1] deals with the molecule itself. As to the kind of experiment: BLI.
Series [2] deals with the molecule itself. As to the kind of experiment: BLI. The source holds these as a separate data set.
Series [3] concerns the molecule itself. Nature of the series: sucrose density gradient centrifugation + SEC.

Positions count from the first letter of the chain named. Numbers in names are those of the source. Where two headings read alike, the source gives them in different places.

B1: Thioredoxin-UgtP fusion protein (wild type) (enzyme, B. subtilis, UniProt P54166 1-382, looked up)
chain: MNTNKRVLILTANYGNGHVQVAKTLYEQCVRLGFQHVTVSNLYQESNPIVSEVTQYLYLKSFSIGKQFYRLFYYGVDKIYNKRKFNIYFKMGNKRLGELVDEHQPDIIINTFPMIVVPEYRRRTGRVIPTFNVMTDFCLHKIWVHENVDKYYVATDYVKEKLLEIGTHPSNVKITGIPIRPQFEESMPVGPIYKKYNLSPNKKVLLIMAGAHGVLKNVKELCENLVKDDQVQVVVVCGKNTALKESLSALEAENGDKLKVLGYVERIDELFRITDCMITKPGGITLTEATAIGVPVILYKPVPGQEKENANFFEDRGAAIVVNRHEEILESVTSLLADEDTLHRMKKNIKDLHLANSSEVILEDILKESEMMTAKQKAKVLS
modifications: biotin on the copy immobilised on the biosensor (site not stated)
In the case of B1, the results for the Kd in “BLI [1]” and in the series “BLI [2]” were 17 nM and 69 nM, respectively. The “stoichiometry N” value in series [3] is approximately 8.8 monomers.

B2: UgtP (F112A V117A E306A N309A) (enzyme, B. subtilis, UniProt P54166 1-382, looked up)
chain: B1 chain with F112A, V117A, E306A, N309A
modifications: biotin on the copy immobilised on the biosensor (site not stated)
Take B2: the results for the Kd in “BLI [1]” and in the series “BLI [2]” were 16 nM and 21 nM, respectively.
